Laboratory results: the DeepSol protein solubility set

Assay: soluble on expression in E. coli; label from the status in PepcDB or PDB records

| Sequence | soluble on expression in E. coli |
| --- | --- |
| MGSDKIHHHHHHMRLFRKEPKAEQLKVIIIGAGEVGYHIAHRLTRENKQVVVVDQQPEALRRVAEALDVQTIRGSGSSPVVLHDAGAEDADIILAVTDSDEINIIACLFANIISPASTKLARIRNEEYTLYRDALAQDILNISMIINPEVEVVKNIDRLLSLPGAVDYSEFADGRIRMVGMRICSGPLVGVRLMNFRTVISDGDVIIAAIVRNDELIIPTGMDEIRADDVVYFVCTESSLESVRNVVAALEDPIRSALIVGGGNIGMRLATLFERKGYHTKLVDRDEERCAVLAEKLNSTIVLHGDGTDQDLLREENAGTMDAVVCLTSDEETNILCSLLAKNMGVRKTVARINKVAYQPLVRAIGIEHSVSPRLSAVNSILHYIRKGKVLSSVAIRGEEAEVMEALAEAQSDIVGRPIHKLSFPKGALVLALVRGTEVVIPSGDTVIEPQDRILILSTRQAVSDVEQALMVKLKAY | not soluble |
| MHDVMELRNLSMVDLQTFNTQFSKITDRYWREIFRRQNDSHHPDHINVSRLQTANIITVLDENLPQGAIQELTITGLIPKPFSSRRCEVMRYLRERLSCSPDVELSFQGDQLRITNPTLNLENVPVLSMEKH | not soluble |
| MSVSRRDVLKFAAATPGVLGLGVVASSLRAAPASAGSLGTLLDYAAGVIPASQIRAAGAVGAIRYVSDRRPGGAWMLGKPIQLSEARDLSGNGLKIVSCYQYGKGSTADWLGGASAGVQHARRGSELHAAAGGPTSAPIYASIDDNPSYEQYKNQIVPYLRSWESVIGHQRTGVYANSKTIDWAVNDGLGSYFWQHNWGSPKGYTHPAAHLHQVEIDKRKVGGVGVDVNQILKPQFGQWA | not soluble |
| MHYSDHFHKVCIASELNEFTDAFRIIYSWLFSLKLLEPKFMDKDSIFCRLFTSIHFRLKYIAAPHYEERKRHLETLEKDGVPKAYIREYAEQQLNVIKQFKLEQKPIGHSFSTDEIIDAARCFGELSNGISVRSRYQRFRAVCMSWFSFMEVITGKDKSYPGSNYVDMFCEWHLTSKGSSVGATVHICQELDRFFAYINSKSVTINLLTAACIDGYIETYQSACFARKTVASKVSILRTFLRYLYNRSIIKTDMSSYLISPRIYTCEILSVSPNENDLNRISHFYDGNTPSAIRNKAILLLLIEYGMRSGGSYRFKT | not soluble |
| MTQVRETVSFKAGDVILYPGVPGPRDRAYRVLEGLVRLEAVDEEGNALTLRLVRPGGFFGEEALFGQERIYFAEAATDVRLEPLPENPDPELLKDLAQHLSQGLAEAYRRIERLATQRLKNRMAAALLELSETPLAHEEEGKVVLKATHDELAAAVGSVRETVTKVIGELAREGYIRSGYGKIQLLDLKGLKELAESRGQGR | soluble |
| MGSDKIHHHHHHMLDNSIPTDSCLVSGATVSTDIETLYCNHHDWLQVWLRRRLSSAVDASDLAHDTFVRVLVSGRMPNAEQSRAFLTQIAKGLAVDLYRRRAIEEAYLAALAQLPENLAPSAEERVLALQVLLLLDTALGSLPSRVREVFLLSRLDGLTYSDIAQRRGISVATVRKYMLRAAQACHCVLNSPTGTAP | not soluble |
| MAFTESDVYNNEAFFKQYMKRRYRENSPNELIEKPAFFQLIGDVKGKKILDLGCGDAIFGKELLEKDCHSYTGIEGSELMYEKAKKQLENKNGIVHFLNLKDYTYPPATFDLVTSRLALHYIEHLPIIFQNVYETLKTNGTFTFSVQHPVITSSFESLQTSGKRTSWLVDDYFKTGKRVEPWIDQKVIKYHRTTEEYFTLLQQAGFTITNLKEATPNQTYFQSAEEYERRLRIPLFLLFSCRKLEHHHHHH | soluble |
| SQRRGQLSRRLVNSADRDPSDENSLSRAPAPACTSRGTHVVETTSLKRHSKVLRSQDASGTAESVNSQTPDDEVDHTLWTLVREVSDAEAAFWALRNDSRLLGFVLRSQLLALVHDDSSVTDFLEAAQQPTDVGDVQAEFILCWVPVPGGPAILWRADYQRLIEEQVARRLSELEDPARKAALWGTTREQVERDTHIRAADGSCWLRTLPCPPSVIRALTQGQKALVQQVKRMGRYGRLPLHRAELLRLSRTCFSARFHILDAVGCGTLALDAQNTLSKEPYLCLPEVRTTNIVDSGEIGF | soluble |
| MGSDKIHHHHHHMPLYLKNHSYGEYVFDWAWANAYERAGHDYYPKLLSAIPFSPVTGKRLLAQTSEQRALLVSTALAIVRKGNAGAGMSSLHCLFPLEHEAREMERAGMMLRCGVQFHWKNRPGRGYENFEDFLGGMSYSKRKKIRQERRKVQDLGIHFEWLSGNDMDEDRWNFFIDCYNNTYREHHSRPYLNLEFFLRLGKSMPENILLILALQNKKPIGVAFNIHNSHTLYGRYWGAREFVPGLHFETCYYQAIQYCIANGLSLFEGGAQGEHKLARGFLPVRTWSAHWLVHSEFAAAIEGYLERETRDIDRYIHALEESAPFRKDARESE | not soluble |
| MSLARTPNGGAIACSDAAALGKDELFWGALFRGLNRGGSFLQLQIRQIIVTAIEDGRLPLGMKMPSSRDLATVLKVSRNTVVIAYEQLVDQNFLVSRQRSGYFVAGLPKKFATEAPGLAEVTSRGDEHWVDRFAVRPSAHRNIVKPLDWQTHPYPFIFGQFDPSLFPTNDWRESARAALSVPEINNWARDLIDGDDPALIEQLQLQVLPRRGIHARADEIMMTIGAQHALYLIATLFINGQTKVGIEEPGYPDARNIFRMLTPNVVPLSVDSEGVVPDAMFQSCALAYVTSSHQCPTAVTMPLPRRIELLKAAATGDVVVVEDDYEGELMPESATLPPLKSIDRASNVLYVGSLSKALAPGLRLGYVVAPAPVIRELRALRRLMLRHPPLNNQRVAALFIGLGHYRAHLAQVGRVLLERAKLLDQLLPKHLPSCSFSRGPGSTNFWVTCPTSIDATALAEAALEQGVVIEPGAVFSMDETASRHCFRLGFSSIRTDRIEVGIQRLGEVIAQHLKAEGHHHHHH | soluble |
| MGSDKIHHHHHHMELQLMQWQVGDLPFFYRCQPQPSNAPYGLPDSLPFCLEFDSALGLIRQSPNTQVEAALERCYQHGSTISGMMDSGGIGQQYARDFLDFIAHHETDLTGKRVLEIGCGTGYLLSLLKQKGADVLGIEPGAQGQGGQQRHGVPIIDGFFPHPKAEGKFDLIVAYAVLEHIGEPQGFLEKIADSLAPDGVAYIAVPDCAPYIENGDISCLLHEHWSYFDASSLQRLLEVSGFAAAVQPAGFGGSIYARAVRVSHKTKPVNDEIDLAGNGFERFRSLALGAGQRLERFLAGPGQAGIYVPGRMINLLASLDSVDLAQVRLFDDNEALTGLYFPGMPNPIEDFSGLVERPPARLLIATKSFHFQIADRIEHASVEVPLLAWSDLFLVAAPK | not soluble |
| MAHHHHHHMNVRKSILNYLILHSSIVRRNHNKSYQKECRQSGSLNWMEKNRKMKSVRPNYFVCIPLSGNKGLVEELIKVQNHVASKFEMLKECAIERNKFHISLLILHVKKSQMVASKEAFREAIEEIKKLNHQAISFDTLETFRNDVLYAGLKEDSRKYVVNMIALLRDAFTKRDIHIFSNHKGKEEAREKTRPSGAIDKGIGNRTDKGAAVPSTYQCSEKEQITPHVTIMKNSYLRKIYANRKPQIFADYYADFNLSKLQTERVVPNKIQFLEMDTDSATSYYRVIDECGLP | not soluble |
| MAVQRYFVSGQAQQGGIVAISGDDAHHIARVMRMKPGDGIICVFPDGRTAVCEIEQIANEHVQARIVQWKEERSELPVRIYIAQGLPKGEKWELVIQKGTELGAAGFLPFEAARSVVKWDAKKAEKKVERWKKIAKEAAEQAERTVVPDVRAPLSFVELLAFGQTVDVRLFAYEKEARNARHAALPALLSRLRPGGALLAVFGPEGGFSPEEAEQLRQHGFSPCSLGPRILRTETAPLYLLSAASYEWELRAGGEAARGR | not soluble |
| SEITETLCIFIKTPYISEWSLNNAIINAKKYNLNLKVIKIDKIIKNVPERCYLCKKMFFEILTKEKEKYNYDVVVDGTNYDDLFEDRPGLRAKEEFNIGSPFADFKIGKKDILEIAKELNINIPPKET | not soluble |
| MFSVYAHRVAAVKDEENGAVKKVTDSVENYNSENRFERTIIVANDNKTAILLILRLKQDGVKTSVFTNYLADDEIVLGEQKKAFVEGAHKVAVCTTQMFEKMEFDVVKHYIFVDAPAEEKLRDQLRQKAVCEGKKIRVDLVMSESYEVSVKVEEKPAEASKPSPKRKCSFDIYSIKPNKQGKFVIPAEYMGFDESAEDDEYDSEYDDDDYNPFKWLGF | not soluble |
| MGSDKIHHHHHHMPSGGVLPVGVHATPMSVREEFDEWAASGRDKGMEDRHWHTAKDVLARMPVEDDDTVLDLGTGSGYAVRALRERGVARGYGLDGAPEMAANARTYTDDDDLAYVVGDFGSLPFADDAIDHVFSFEAFYYASDPRETLAEIRRVLKSGGTFYCGVNYYEENVHSHDWQDSISVEMTRWDRATYREAFRGAGLHVAAQDLIADTEIDIPAASEFPHEGFDSRADMVERYRTFGTLLTVGVAP | not soluble |
| MYSDLAGKVVVITGSATGLGRAMGVRFAKEKAKVVINYRSRESEAHDVLEEIKKVGGEAIAVKGDVTVESDVVNLIQSAVKEFGTLDVMINNAGIENAVPSHEMPLEDWNKVINTNLTGAFLGSREAIKYFVEHDIKGSIINMSSVHEKIPWPLFVHYAASKGGVKLMTETLAMEYAPKGIRVNNIGPGAINTPINAEKFADPKKRADVESMIPMGYIGKPEEIAAVATWLASSEASYVTGITLFADGGMTLYPSFQAGRG | not soluble |
| MNPTTLADVDTVIINANILTLDRDCPHAQAIAFAAGRILALGTTQELSPLAGRAATVVDARGSTLLPGFIDSHSHLMFGGVVAQALDLTEAACLSDLLDMVRSRAQSTPEGEWIRGYGVAAGRLKEKRYPTRQELDQVSGGRPVWLAEDSFHASLVNSKAFRMLEIPLSTPGVELAADGSPTGAFLNDAANVPARQRVFGFISDDEARQMLQHVTQLGATRGVTTVHAFEGSRMSADRDIELLMRFRHELPIHVVPYYETFDVERAMQLGVSGVGGCGRNCLDGMPNIQTAAMVDPYCCSEERGSLFQESIKLHNFVIAAFERGMQVGMHAMGDAAIEQLLATYERAIEETGRTDLRPRIEHFHVPSRDHVRRAADLGVGLAVQPIFTHLWGGRDGIFFERLGERRYKRIDTYREILDSGAIASCGADLPVHPADPLRWIQLLVDNQIDRDQSVSMTEAIRMCTYNGAWLGFQESETGTLAVSKAADAVMLGRDPHQCMPHEIAAIPILKTLGGKLVFESSRPLEHHHHHH | not soluble |
| MLNVEPSFAEELRSSGVSLSATYLGSVPVVESINVMVSEMRVQVVSECIQHVAATVGVTAAREINPVVSRVIGEVKKENFPVDINISSKMIKIIKQSRLIQRHPFSFFSFGAQGQKGTDTELMFGYIAKNKDGTDRRCHVVFIEDVHKLIDVLTTAINVNTFDAQANASTSNDGFTVPAPPMRHRSSLHRQSFVSNCRAPTVTEDVVGKVWYHGNLSREDAQALLKTEGDFLVRQSDHTPGKYVLSGRTAENEHKHLILLDNHNRVRTRDRTFSNISELIDYHVNNGMAVRSEGRDRETSLNLIRPVPCPGSDDIE | soluble |
| GPGSMSESCSGDYYHFVTQRSQAAEITLPIPSFCKPLAASVQPFGEGKAGLLASFFDPEQHAWVVRQLPVQESWSHQPPPSLTVRVATLVDPANLYELRVSLSSVLDGVDNDDLCALQRRSQIYGLVVEEHLADKSGAALRSAGAEGRLPQLREAVTLAAPVDVMNGFVLTGGGFLSDFPVLRDGPALPRSMNTVYDDILAGEDFCGPPMPAGGARFAGTDSAAHTSGGRGSDSPVNSNEPREYTAWSVTAAANAGLACISMGLRRRSPIEWPQLQSESQHTHSASPRERTGPGTSLAISPGPLRAKPPPSVVSDTGALAVYQCTGVPVSGLRPNEHGDGGNGAHGVVSAYSSAAVSTMAARPLLETLTLRGEVDVKLSRRDGEEWGISLPPPHGSLKFSMGPNRELVAAARRYFYCE | not soluble |
